Laboratory results published in PMC3500269.
Values belong to the binder of their own block, whether it stands above or below them.

Molecular target: cellobiose dehydrogenase IIA from N. crassa (N. crassa)

- Specific activity of H2O2 production (Amplex Red/horseradish peroxidase assay) with CDH IIA (0.3 uM, 500 uM cellobiose) as reductant: 1.07 U g^-1
B1: PMO-01867 (enzyme)
chain: HAIFQQLWVDGVDYGSTCNRLPTSNSPVTNVGSRDVVCNAGTRGVSGKCPVKAGGTVTVEMHQQPGDRSCKSEAIGGAHWGPVQIYLSKVSDASTADGSSGGWFKIFSDAWSKKSGGRVGDDDNWGTRDLNACCGRMDVLIPKDLPSGDYLLRAEALALHTAGQSGGAQFYISCYQITVSGGGSANYATVKFPGAYRASDPGIQINIHAVVSNYVAPGPAVVAGGVTKQAGSGCIGCESTCKVGSSPSAVAPGGKPASGGSDGNAPEVAEPSGGEGSPSAPGACEVAAYGQCGGDQYSGCTQCASGYTCKAVSPPYYSQCAPTS

- Specific activity of H2O2 production (Amplex Red/horseradish peroxidase assay) with CDH IIA (0.3 uM, 500 uM cellobiose) as reductant: 15.5 U g^-1
B2: PMO-03328 (enzyme)
chain: HYTFPKVWANSGTTADWQYVRRADNWQNNGFVDNVNSQQIRCFQSTHSPAQSTLSVAAGTTITYGAAPSVYHPGPMQFYLARVPDGQDINSWTGEGAVWFKIYHEQPTFGSQLTWSSNGKSSFPVKIPSCIKSGSYLLRAEHIGLHVAQSSGAAQFYISCAQLSITGGGSTEPGANYKVSFPGAYKASDPGILININYPVPTSYKNPGPSVFTC

- Specific activity of H2O2 production (Amplex Red/horseradish peroxidase assay) with CDH IIA (0.3 uM, 500 uM cellobiose) as reductant: 1.53 U g^-1
B3: PMO-08760 (enzyme)
chain: HATFQALWVDGADYGSQCARVPPSNSPVTDVTSNAMRCNTGTSPVAKKCPVKAGSTVTVEMHQQANDRSCSSEAIGGAHYGPVLVYMSKVSDAASADGSSGWFKIFEDTWAKKPSSSSGDDDFWGVKDLNSCCGKMQVKIPSDIPAGDYLLRAEVIALHTAASAGGAQLYMTCYQISVTGGGSATPATVSFPGAYKSSDPGILVDIHSAMSTYVAPGPAVYSGGSSKKAGSGCVGCESTCKVGSGPTGTASAVPVASTSAAAGGGGGGGSGGCSVAKYQQCGGTGYTGCTSCASGSTCSAVSPPYYSQCV

- Specific activity of H2O2 production (Amplex Red/horseradish peroxidase assay) with CDH IIA (0.3 uM, 500 uM cellobiose) as reductant: 1.82 U g^-1
B4: PMO-02916 (enzyme)
chain: HTIFQKVSVNGADQGQLKGIRAPANNNPVTDVMSSDIICNAVTMKDSNVLTVPAGAKVGHFWGHEIGGAAGPNDADNPIAASHKGPIMVYLAKVDNAATTGTSGLKWFKVAEAGLSNGKWAVDDLIANNGWSYFDMPTCIAPGQYLMRAELIALHNAGSQAGAQFYIGCAQINVTGGGSASPSNTVSFPGAYSASDPGILINIYGGSGKTDNGGKPYQIPGPALFTCPAGGSGGSSPAPATTASTPKPTSASAPKPVSTTASTPKPTNGSGSGTGAAHSTKCGGSKPAATTKASNPQPTNGGNSAVRAAALYGQCGGKGWTGPTSCASGTCKFSNDWYSQCLP
